Experiments:
m^7GTP-CBC [1] = biological target: T1, m^7GTP-CBC (Homo sapiens, UniProt P52298+Q09161); test: ITC, binding to CBC in the presence of the cap analogue m^7GTP; conditions: for Kd: ITC, 25 °C, 20 mM HEPES, 120 mM NaCl, 2 mM TCEP, pH 7.8, CBC bound to m^7GTP, mean ± SD of at least two independent experiments
T1 construct: 6-histidine tag (pETM30 vector) (N, cleaved yes); made in house; host or cells: CBP20 in E. coli Rosetta 2; CBP80ΔNLS in High Five insect cells; heterodimer reconstituted on Ni-sepharose
T1 sequence (Q09161 20-790): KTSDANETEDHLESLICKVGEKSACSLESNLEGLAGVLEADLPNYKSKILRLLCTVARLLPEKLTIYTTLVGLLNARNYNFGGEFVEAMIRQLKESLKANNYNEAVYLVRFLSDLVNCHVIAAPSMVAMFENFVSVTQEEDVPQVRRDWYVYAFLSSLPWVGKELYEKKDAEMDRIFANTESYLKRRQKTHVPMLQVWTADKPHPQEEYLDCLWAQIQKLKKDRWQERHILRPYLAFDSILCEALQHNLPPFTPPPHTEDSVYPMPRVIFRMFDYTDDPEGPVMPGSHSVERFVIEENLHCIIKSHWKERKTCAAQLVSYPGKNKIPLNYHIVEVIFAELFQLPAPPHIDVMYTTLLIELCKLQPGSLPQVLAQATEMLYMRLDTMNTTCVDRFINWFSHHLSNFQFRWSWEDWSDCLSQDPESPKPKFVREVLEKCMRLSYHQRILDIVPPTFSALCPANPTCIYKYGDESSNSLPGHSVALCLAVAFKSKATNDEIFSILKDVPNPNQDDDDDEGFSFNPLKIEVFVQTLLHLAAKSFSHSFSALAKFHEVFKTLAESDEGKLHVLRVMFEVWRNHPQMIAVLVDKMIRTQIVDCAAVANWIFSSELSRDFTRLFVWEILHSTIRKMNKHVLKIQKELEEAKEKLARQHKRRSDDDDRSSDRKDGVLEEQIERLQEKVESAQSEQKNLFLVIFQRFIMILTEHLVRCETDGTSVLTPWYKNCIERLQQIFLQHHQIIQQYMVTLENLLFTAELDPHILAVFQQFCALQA
T1 sequence (P52298 1-156): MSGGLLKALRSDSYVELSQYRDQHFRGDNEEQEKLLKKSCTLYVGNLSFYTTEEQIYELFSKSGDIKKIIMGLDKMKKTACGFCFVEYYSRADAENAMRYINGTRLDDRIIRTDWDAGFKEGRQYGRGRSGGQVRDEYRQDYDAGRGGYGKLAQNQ
Text: (§1) hARS2 isoform-4 (871 residues, UniProt:Q9BXP5-4, also known as isoform-e, NP_001122326) constructs (residues 147–871, 147–845, 763–871, 763–845, 827–871) hNELF-E (NM_002904.5) (244–380, 244–360) and hPHAX (NM_032177.3) (1–394, 103–294, 103–308, 103–327) were cloned into pETM11 (EMBL). Full-length hNELF-E (1–380) was cloned into pFASTBac and CBP20 into pETM30. Primers used are given in Supplementary Table 2. All constructs were expressed in E. coli Rosetta 2 (Novagen), except full-length NELF-E and CBP80ΔNLS (CBP80 with residues 1–19 deleted[2]), which were expressed in High Five insect cells (Life Technology). Cells were harvested and lysed by sonication in lysis buffer containing 50 mM HEPES, pH 7.8, 300 mM NaCl, 10% (v/v) glycerol, 5 mM β-mercaptoethanol. Lysates were clarified by centrifugation and applied on an equilibrated Ni-sepharose column (GE Healthcare), washed with 20 mM imidazole in lysis buffer, and eluted with 300 mM imidazole in lysis buffer. While dialysing into 20 mM HEPES, pH 7.8, 120 mM NaCl, 10% (v/v) glycerol, 5 mM β-mercaptoethanol, the N-terminal 6-histidine-tag was cleaved with His-tagged Tobacco Etch Virus (TEV) protease overnight in a ratio 1:100 mg TEV per mg protein. The cleaved protein was further purified first on Ni-sepharose to remove TEV and then using an anion exchange column (HiTrap Q, GE Healthcare) followed if necessary by a Heparin column (GE Healthcare). In both cases a NaCl gradient from 50 to 800 mM in 20 mM HEPES 7.8, 0.5 mM tris(2-carboxyethyl)phosphine was used. To reconstitute the CBC heterodimer, cleared His-tagged CBP20 lysate was first immobilised on a Ni-sepharose column. After washing the column with lysis buffer, the cleared CBP80 lysate was applied to the column and further purification steps performed as described above. To remove the access of CBP20 the flow through of the Ni-column after TEV cleavage was loaded on an anion exchange column (HiTrap Q, GE Healthcare) and CBC eluted by a NaCl gradient as described above. In the text we refer to CBP80ΔNLS and CBP80ΔNLS-CBP20 as CBP80 and CBC, respectively. ARS2^845–871, NELF-E^354–380, and NELF-E^360–380 peptides, with or without FAM label at the N-terminus, were purchased from GenScript.

m^7GTP-CBCmut = test: ITC, binding to mutated CBC in the presence of m^7GTP; set-up: species or system human; conditions: 25 °C, pH 7.8, CBCmut = CBP20 Y50A + CBP80 Y461A/R610E/H651A, with m^7GTP, mean ± SD of 2 experiments
Protocol: For CBC, a triple mutant in CBP80 (Y461A/R610E/H651A) was combined with various mutations in CBP20 (Y50A, Y50A/Y89A, or Y50A/Y89A/D107R).
ITC experiments were performed on a MicroCal ITC200 system (Malvern). Proteins were dialyzed overnight in buffer 20 mM HEPES, 120 mM NaCl, 2 mM tris(2-carboxyethyl)phosphine, pH 7.8. Injections of 1.5 µl protein A were added at an interval of 120–180 s into 205 µl of protein B in the cell, with a stirring speed of 800 rpm at 25 °C. The experimental data were analysed with MicroCal ITC Origin and were fitted to a single-site binding equation.

CBC = biological target: T2, CBC (Homo sapiens, UniProt P52298); test: ITC, binding to CBC without cap analogue; conditions: ITC (MicroCal ITC200), 25 °C, 20 mM HEPES, 120 mM NaCl, 2 mM TCEP, pH 7.8, single-site fit; no cap analogue pre-bound; mean ± SD of at least two independent experiments; SD
T2 sequence (P52298 1-156): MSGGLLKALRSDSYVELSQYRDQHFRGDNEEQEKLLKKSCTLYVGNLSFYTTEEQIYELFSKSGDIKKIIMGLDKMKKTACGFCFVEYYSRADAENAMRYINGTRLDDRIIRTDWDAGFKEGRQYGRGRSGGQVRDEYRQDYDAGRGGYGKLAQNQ
T2 sequence (Q09161 20-790 partner): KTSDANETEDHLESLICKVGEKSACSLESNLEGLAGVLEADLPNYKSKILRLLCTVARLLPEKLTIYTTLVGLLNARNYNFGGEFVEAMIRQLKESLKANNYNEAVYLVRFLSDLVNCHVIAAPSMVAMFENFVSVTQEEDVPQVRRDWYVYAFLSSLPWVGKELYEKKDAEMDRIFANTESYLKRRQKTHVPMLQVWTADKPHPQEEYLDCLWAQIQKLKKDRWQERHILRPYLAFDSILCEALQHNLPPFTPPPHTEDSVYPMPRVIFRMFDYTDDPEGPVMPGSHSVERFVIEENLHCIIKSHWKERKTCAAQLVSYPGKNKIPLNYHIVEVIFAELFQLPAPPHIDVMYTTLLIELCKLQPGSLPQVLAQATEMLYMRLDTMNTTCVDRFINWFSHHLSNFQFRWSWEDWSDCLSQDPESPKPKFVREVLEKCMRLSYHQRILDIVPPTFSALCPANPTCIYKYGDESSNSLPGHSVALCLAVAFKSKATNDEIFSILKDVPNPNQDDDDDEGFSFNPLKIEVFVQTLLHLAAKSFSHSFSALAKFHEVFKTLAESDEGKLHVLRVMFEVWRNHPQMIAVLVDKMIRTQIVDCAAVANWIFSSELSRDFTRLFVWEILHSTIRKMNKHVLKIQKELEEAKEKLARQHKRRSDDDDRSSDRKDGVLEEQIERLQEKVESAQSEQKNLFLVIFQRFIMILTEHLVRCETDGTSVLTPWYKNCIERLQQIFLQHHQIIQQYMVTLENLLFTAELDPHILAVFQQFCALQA
Text: as §1

m^7GTP-CBC [2] = biological target: T1, m^7GTP-CBC; test: Fluorescence polarisation with FAM-labelled C-terminal peptides; assay type: binding; conditions: competition; 40 nM FAM peptide, 60 nM CBC, 25 µM m^7GTP, 25 °C; n = 3
Protocol: Fig. 4 Incompatibility of ARS2-PHAX and NELF-E binding to CBC. a, b Competition on m^7GTP-sepharose. a In separate experiments, different amounts of ARS2^147–871 were added to preformed CBC–NELF–E complex immobilised on m^7GTP-sepharose. […] The fluorophore FAM is represented with a star. Note that different constructs of NELF-E and ARS2 were used in c, d, and e compared to f, g, and h and are therefore represented by slightly different shapes. Error bars show the SD of three experiments
Fluorescence anisotropy binding assays were performed with N-terminal FAM-labelled ARS2^845–871 and […] peptides. 40 nM peptides were titrated with increasing concentrations of proteins in 20 mM HEPES, pH 7.8, 120 mM NaCl, 2 mM tris(2-carboxyethyl)phosphine. For the competition assay CBC–ARS2 and CBC–NELF–E complexes were preformed in the presence of 25 µM m^7GTP using 40 nM ARS2^827–871(FAM) peptide together with 60 nM CBC and 40 nM NELF-E^354–380(FAM) peptide with 1 µM CBC. […] To observe a change in polarisation at reasonable protein concentrations, CBC and NELF-E^244–380 concentrations that saturate half of the FAM-labelled peptides were used to preform the individual complexes. Fluorescence polarisation was measured at 25 °C with a microplate reader (CLARIOstar BMG LABTECH) using an excitation wavelength of 495 nm and emission wavelength of 515 nm. For analysis the polarisation value for the peptide alone was subtracted from the measurements.

Kd (m^7GTP-CBC [1]): ~40 nM
Kd (m^7GTP-CBC [1]; SD): 50 ± 10 nM
Enhancement of the interaction with CBC when m^7GTP is bound (m^7GTP-CBC [1]; ratio of ITC K D without / with m^7GTP): eight times higher
K D (m^7GTP-CBCmut): completely abolished binding
Kd (CBC): 400 ± 200 nM
Change of polarisation on titration to m^7GTP-CBC-ARS2^845–871(FAM) (m^7GTP-CBC [2]): decrease in polarisation
B1: NELF-E 244–380: C-terminal human NELF-E fragment including the RRM domain, E. coli expressed (protein, UniProt P18615 244-380, looked up, fragment)
chain: GPFRRSDSFPERRAPRKGNTLYVYGEDMTPTLLRGAFSPFGNIIDLSMDPPRNCAFVTYEKMESADQAVAELNGTQVESVQLKVNIARKQPMLDAATGKSVWGSLAVQNSPKGCHRDKRTQIVYSDDVYKENLVDGF
